Experiment [1] has as its target T1, IGF-1R (soluble, construct not stated) (human, UniProt P08069 31-932, limits assumed).
T1 construct: whole entry named; also called Solube IGF-1R Protein; soluble recombinant human IGF-1R
In words: Fab affinity for IGF-1R, method not given; Fab, not IgG; method and IGF-1R construct not stated.

In experiment [2] the target is T2, human IGF-1R(1-902)-His10 (human, UniProt P08069 31-932).
T2 construct: Cy5-labelled in tr-FRET; also called hIGF-1R-His10; IGF-1R-His
In words: SPR, Fab over captured IGF-1R-10His. Here is the method:
All surface plasmon resonance (SPR) experiments were performed on a Biacore 3000 set to 25° C. using HBS-EP (Biacore, Cat. No. BR-1001-88) as the running buffer. A biotin-labeled anti-HisTag antibody (biotin-PENTA-His, Qiagen Cat. No. 34440) was immobilized to saturation on a Biacore SA chip (Cat. No. BR-1000-32) surface by injection at 500 nM in HBS-EP buffer. […] Subsequent to IGF-1R injections, flow rates were increased to 20 μL/min. A second, 130 μL injection of anti-IGF-1R antibody or Fab was performed to investigate interactions with the receptor. Each antibody and Fab was serially diluted from 64 nM to 0.5 nM to obtain concentration dependent kinetic binding curves. Each injection series was regenerated using 3×10 μL injections of 10 mM Acetate, pH 4.0, at 20 μL/min. Each curve was double referenced using (1) data obtained from a streptavidin surface devoid of IGF-1R and (2) data from a primary injection of IGF-1R followed by a secondary injection of HBS-EP buffer. The concentration series for each antibody and Fab was fit to the 1:1 binding model provided within the BiaEvaluation software of the manufacturer.
To obtain discrete affinities, Fab fragments of each antibody were generated using papain digestion as described above.
In general terms: SPR reads the build-up and loss of mass on a sensor chip optically.

Experiment [3] addresses T3, hIGF-1R-Fc mutant SD015 (H464E) (human, UniProt P08069 31-933).
T3 construct: not shown: C-terminal human IgG1-Fc tag
Nature of the experiment: SPR (Biacore): M13-C06 injected over SD015 captured on an immobilised M13-C06 surface. Here is the method: After, completion of the receptor-Fc loading step, flow rates were elevated to 5 μl/min. […] At the end of each sensorgram, the flow rate was elevated to 30 μl/min and the chip surface was regenerated by 2×10 μL injections of 0.1 M glycine, pH 2.

Experiment [4] addresses T4, hIGF-1R-Fc mutant SD102 (E459A, S460A) (human, UniProt P08069 31-933).
T4 construct: not shown: C-terminal human IgG1-Fc tag
Nature of the experiment: SPR, Fab over captured mutant.

Experiment [5] has as its target T5, hIGF-1R-Fc mutant SD103 (D461A, V462T) (human, UniProt P08069 31-933).
T5 construct: not shown: C-terminal human IgG1-Fc tag
Nature of the experiment: SPR, Fab over captured mutant.

Experiment [6] concerns the target T6, hIGF-1R-Fc mutant SD104 (H464A) (human, UniProt P08069 31-933).
T6 construct: not shown: C-terminal human IgG1-Fc tag
Nature of the experiment: SPR, Fab over captured mutant.

Experiment [7] concerns the target T7, hIGF-1R-Fc mutant SD108 (H480E) (human, UniProt P08069 31-933).
T7 construct: not shown: C-terminal human IgG1-Fc tag
In words: SPR, Fab over captured mutant.

The target in experiment [8] is T8, hIGF-1R-Fc mutant SD109 (Y482A, R483W) (human, UniProt P08069 31-933).
T8 construct: not shown: C-terminal human IgG1-Fc tag
Nature of the experiment: SPR, Fab over captured mutant.

For experiment [9], the target named is T9, hIGF-1R-Fc mutant SD113 (E570A, I571T) (human, UniProt P08069 31-933).
T9 construct: not shown: C-terminal human IgG1-Fc tag
In words: SPR, Fab over captured mutant.

The target of experiment [10] is T10, human IGF-1R(1-903)-Fc (human, UniProt P08069 31-933).
T10 construct: Made by Biogen Idec; Multimerises through IGF-1R and Fc; also called hIGF-1R-Fc; IGF-1R-Fc; not shown: C-terminal human IgG1-Fc tag
Nature of the experiment: SPR, Fab over hIGF-1R-Fc captured by anti-Fc, 1:1 model, apparent affinity. The procedure: Experiments were performed on a Biacore 3000 set to 25° C. using HBS-EP (Biacore, Cat. No. BR-1001-88) as the running buffer. An anti-human IgG-Fc antibody (2C11 from Biogenesis, Cat. No. 5218-9850) was immobilized to saturation on a Biacore CM5 chip (Cat. No. BR-1000-14) surface by injection at 500 nM in HBS-EP buffer. mIGF-1R-Fc or hIGF-1R-Fc was captured on the chip surface by injecting 40 μL of 20 nM receptor at 3 μL/min. […] Dissociation of Fab was measured for ˜27 minutes. Fab was serially diluted from 25 to 0.4 nM to obtain concentration dependent kinetic binding curves. Regeneration of the surface chip between each injection series was performed using 3×10 μL injections of 100 mM glycine pH 2.0 at 60 μL/min. Each curve was double referenced using (1) data obtained from a CM5 chip surface devoid of the anti-IgG antibody 2C11 and (2) data from a primary injection of receptor followed by a secondary injection of HBS-EP buffer.

Experiment [11] deals with T11, human INSR(28-956)-His10 (human, UniProt P06213 28-956).
T11 construct: range 28-956; Bought (R&D Systems 1544-IR); also called rh-INSR; soluble insulin receptor
Nature of the experiment: ELISA on coated rh-INSR. Here is the method:
ELISA assays were performed to determine specific binding of the Fab fragment antibodies to soluble IGF-1R over the insulin receptor. […] Color development was stopped by addition of 4NH₂SO₄ and optical density is measured at 450 nm using a Molecular Devices plate reader and binding curves are generated.
A general note: In an ELISA, binding on a coated surface is turned into a signal by an enzyme label.

By koff is commonly meant the first-order rate constant of dissociation. A lower koff goes with a long-lived complex. Broadly, the kon is a measure of how fast the partners come together. Higher therefore signals fast association.

B1: M13-C06 Fab (Fab, V domains shown)
VH: EVQLLESGGGLVQPGGSLRLSCAASGFTFSIYRMQWVRQAPGKGLEWVSGISPSGGTTWYADSVKGRFTISRDNSKNTLYLQMNSLRAEDTAVYYCARWSGGSGYAFDIWGQGTMVTVSS
VL: DIQMTQSPLSLSASVGDRVTITCQASRDIRNYLNWYQQKPGKAPKLLIYDASSLQTGVPSRFGGSGSGTDFSFTIGSLQPEDIATYYCQQFDSLPHTFGQGTKLEIK
notes: Human Fab from a phage library, kappa light chain
For the molecule B1, the Kd in [1] was found to be 1.3 nM; in [10], 0.978 nM. Besides, in experiment [2], the koff amounted to 0.0012 s⁻¹. The same molecule had a kon in experiment [2] of 880000 M⁻¹ s⁻¹. For the same molecule, the binding result in [3], in experiment [4], in experiment [5], in experiment [6], in [7] and in [8] was “no binding (tested: 10 nM)” in each case. In addition, the binding result in [9] is listed as “no binding (tested: 10 nM)”; in experiment [11], “no binding (tested: 2 µM-0.2 nM)”.

These data come from US20090291088A1 (Biogen, published 2009).
